One molecule from US20180148718, “COMPOUNDS AND METHODS FOR INCREASING ANTISENSE ACTIVITY” (Ionis Pharmaceuticals, Inc., published 2018) can be followed below.

In this series the target is Hsp90alpha (UniProt P07900 P07900:2-732). As to the kind of experiment: filter; nitrocellulose double-filter binding, printed as binding constant. To be noted: label: 5' biotin-TEG, radiolabel. As to the method:
The protein-bound ASOs were transferred to a nitrocellulose membrane and the signal intensity was determined. As a control, no significant binding was found for a PS/DNA ASO. The specific binding of protein-bound ASO to the nitrocellulose membrane was confirmed using a double-filter binding assay for PS/cEt and PS/LNA ASOs. The unbound ASOs were attracted using a Hybond-N+Nylon membrane under the Hybond ECL nitrocellulose membrane.

The term Kd denotes a measure of binding affinity in units of concentration. Low values mean higher affinity, high ones lower affinity. As to CTGCTAGCCTCTGGATTTGA (XNA, 5-10-5 gapmer, LNA wings 1-5 and 16-20, 2'-deoxy gap, all C 5mC, full PS) [Isis 586184 (PS/LNA)], the Kd was determined as 17.7 nM. This counts as double-digit nanomolar.
